Measurements reported in the supplement of paper PMC9732359.
± gives the uncertainty stated by the source.

Assay: protein stability index of a GFP-peptide fusion (yeast GPS) (PSI 1-4); higher = more stable; sorted into four equal gates, so the index is relative within each strain
Summary of the method: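 Each library plasmid carries Cherry plus GFP with a tiled 17-residue yeast protein peptide fused downstream, and the pooled library was carried in yeast. Mid-log cultures in leucine-free medium were sorted into four equal gates by GFP/Cherry ratio. Reads from Illumina sequencing of PCR-amplified plasmids from each gate were assigned to strains by barcodes. Per peptide, the protein stability index was computed as the summed products of gate read frequency and gate number.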

| Sequence | protein stability index (doa10∆) | protein stability index (pdr5∆) | protein stability index (san1∆) | protein stability index (ubr1∆) |
| --- | --- | --- | --- | --- |
| AYNKKSTISAREIQTAV [HTB1] | 2.5 ± 0.1 | 3.03 ± 0.089 | 2.98 ± 0.12 | 2.92 ± 0.13 |
| EGEPVNSPNYFVAKLAA [COR1] | 3.31 ± 0.16 | 3.16 ± 0.14 | 3.37 ± 0.13 | 3.14 ± 0.17 |
| SQSKGTVWSANFEYDLS [YOR098C/NUP1] | – | 3.35 ± 0.15 | 2.69 ± 0.28 | 3.38 ± 0.12 |
| RKVRTKKWKKYWQYKAG [SWP82] | 2.47 ± 0.089 | 2.17 ± 0.12 | 2.83 ± 0.12 | 2.04 ± 0.058 |
| ILTIIEEYKKSLYAYCH [GRR1] | 2.38 ± 0.28 | 1.33 ± 0.21 | 2.27 ± 0.26 | 3.38 ± 0.24 |
| VAALKAVGAHSDLLKVL [RPL4A] | 3.21 ± 0.093 | 3.16 ± 0.11 | 2.71 ± 0.1 | 2.83 ± 0.059 |
| LYEKDIVPSMTHLEIEP [RET1] | 2.68 ± 0.098 | 2.65 ± 0.089 | 2.73 ± 0.09 | 2.85 ± 0.053 |
| SGNLPLNELSAKDKEIY [RPN13] | 3.21 ± 0.074 | 3.32 ± 0.083 | 3.27 ± 0.044 | 3.19 ± 0.067 |
| ILVLALEDLKDVYASKV [PRP8] | 2.29 ± 0.064 | 1.8 ± 0.057 | 2.85 ± 0.081 | 2.21 ± 0.066 |
| NILPFLWGPHGLNSDAE [ECM29] | 2.86 ± 0.21 | 2.71 ± 0.16 | 2.54 ± 0.14 | 2.42 ± 0.2 |
| SHIESDSTSHNNGSSDK [MED1] | 2.89 ± 0.042 | 2.94 ± 0.038 | 2.84 ± 0.042 | 3.01 ± 0.032 |
| FGSADDTYPYLTGEWST [FAS1] | 2.32 ± 0.067 | 1.32 ± 0.047 | 1.21 ± 0.086 | 1.28 ± 0.072 |
| KQENSTLLKKANRDDVK [RPC82] | 2.72 ± 0.085 | 2.51 ± 0.13 | 3.16 ± 0.22 | 3.12 ± 0.09 |
| KDGEDIIFNYVPGPGTK [CSL4] | 2.56 ± 0.17 | 2.53 ± 0.11 | 2.23 ± 0.14 | 2.52 ± 0.29 |
| VISIVGGHSLEEISFSL [PRP28] | 2.82 ± 0.13 | 2.73 ± 0.13 | 3.19 ± 0.091 | 3.18 ± 0.13 |
| GGDVVKFQKLLQNSERD [SMC4] | 3.15 ± 0.073 | 3.11 ± 0.049 | 3.06 ± 0.047 | 2.96 ± 0.052 |
| MSGAAAASAAGYDRHIT [SCL1] | 3.08 ± 0.24 | 2.87 ± 0.16 | 3.27 ± 0.12 | 2.94 ± 0.14 |
| TKHLMPQDLTFNAGSNP [RPB7] | – | 3.62 ± 0.2 | 3.22 ± 0.26 | 2.79 ± 0.24 |
| LREHFKNTEEGKALVHH [QCR6] | 2.87 ± 0.11 | 3.23 ± 0.1 | 3.34 ± 0.057 | 3.09 ± 0.099 |
| EITDAYCFAKNDLFFNN [YMR129W/POM152] | 2.59 ± 0.059 | 2.56 ± 0.063 | 2.22 ± 0.071 | 2.61 ± 0.056 |
| AKIISKAPEQFIENFLT [YML103C/NUP188] | 2.69 ± 0.17 | 2.94 ± 0.26 | 2.54 ± 0.2 | 2.89 ± 0.2 |
| SNIMSDSKKIKVDSPDD [GAL11] | 2.9 ± 0.078 | 2.73 ± 0.079 | 3.03 ± 0.072 | 2.88 ± 0.061 |
| EYKTSSDSLGPDTSNEI [SRB2] | 2.67 ± 0.23 | 2.47 ± 0.089 | 2.96 ± 0.2 | 2.55 ± 0.1 |
| NLNDAGLALQLFKKLKE [RPN2] | – | 2.69 ± 0.23 | 2.51 ± 0.24 | 3.19 ± 0.28 |
| TESNELIQKLQNSANNN [IRR1] | 2.93 ± 0.11 | 3.02 ± 0.082 | 3.24 ± 0.053 | 3.09 ± 0.17 |
| KDLKEILSGFHNAGPVA [RPP1B] | 2.93 ± 0.057 | 2.75 ± 0.062 | 2.62 ± 0.066 | 2.58 ± 0.066 |

| Sequence | protein stability index (doa10∆) | protein stability index (pdr5∆) | protein stability index (san1∆) | protein stability index (ubr1∆) |
| --- | --- | --- | --- | --- |
| APSDFSENQRQIFCVFS [GRR1] | 2.93 ± 0.071 | 2.58 ± 0.078 | 2.76 ± 0.064 | 2.65 ± 0.057 |
| VWDKFAVNLLNCPHSDS [SSN2] | – | 2.81 ± 0.27 | – | – |
| EANFDLINIDTSIANAF [RPC40] | 2.78 ± 0.049 | 3.27 ± 0.057 | 3 ± 0.05 | 3.07 ± 0.043 |
| LQPIKGESARRFQKCFP [RPC40] | – | 3 ± 0.25 | – | – |
| KKLDYVLALKVEDFLER [RPS9A] | 1.76 ± 0.092 | 2.73 ± 0.079 | 2.08 ± 0.067 | 2.72 ± 0.072 |
| PERWLPLRDRSTYRPKK [SRP72] | 3.29 ± 0.2 | 3.05 ± 0.22 | 2.89 ± 0.2 | 3.64 ± 0.28 |
| LLNLPPFQVSSFVKETK [SRB8] | 1.94 ± 0.039 | 1.88 ± 0.035 | 2.04 ± 0.05 | 2.02 ± 0.04 |
| AKFFLNVSDEQLSNWQK [ITC1] | 3.21 ± 0.073 | 3.21 ± 0.053 | 3.18 ± 0.063 | 3.17 ± 0.072 |
| QNSANNNSDDEDVDDEE [IRR1] | 3.28 ± 0.14 | 3.22 ± 0.15 | 3.62 ± 0.087 | 3.34 ± 0.1 |
| KAKVDDLVLGKPLADLR [YLR335W/NUP2] | 3.23 ± 0.25 | 3.56 ± 0.21 | 3.39 ± 0.072 | 3.35 ± 0.09 |
| VRAVNTGMEPGKTSFFQ [RPP0] | 2.58 ± 0.16 | 2.78 ± 0.15 | 2.8 ± 0.18 | 2.42 ± 0.25 |
| DTLDGDLMDDMSDISDL [RPN3] | 2.71 ± 0.18 | 2.69 ± 0.076 | 2.11 ± 0.13 | 2.14 ± 0.1 |
| LIESLNTIRQNVTSSGD [YML103C/NUP188] | 1.13 ± 0.064 | 1.27 ± 0.096 | 1.17 ± 0.23 | 1.21 ± 0.081 |
| PSAFNFTGNNSTPGGGS [YOR098C/NUP1] | – | – | 3.14 ± 0.13 | – |
| EYYRIQKQLPQKTRVKL [ESC2] | 2.79 ± 0.055 | 2.77 ± 0.05 | 2.86 ± 0.05 | 2.82 ± 0.039 |
| LSVDDIRGAVGNSEAIP [RTT102] | 3.35 ± 0.053 | 3.38 ± 0.057 | 3.3 ± 0.056 | 3.41 ± 0.047 |
| YVPTRNTFNYDVKISND [RPN4] | 1.85 ± 0.068 | 2.3 ± 0.065 | 2.29 ± 0.078 | 2.25 ± 0.056 |
| EFIYLTKVLQFAAKQRQ [SNF2] | 1.33 ± 0.19 | 1.28 ± 0.15 | 1.39 ± 0.15 | – |
| HGSIIILGMLSLADNEI [YCS4] | 1.99 ± 0.069 | 2.04 ± 0.069 | 2.05 ± 0.1 | 2.25 ± 0.075 |
| NKVGSTGSLMGGNSTQN [YGR119C/NUP57] | 3.02 ± 0.076 | 3.38 ± 0.098 | 3.19 ± 0.059 | 3.17 ± 0.053 |
| VLPDADVKLLHSQFMKD [YJL039C/NUP192] | – | 2.21 ± 0.12 | – | 2.27 ± 0.25 |
| TPKITAAEKSFKPPKNK [SEC65] | 2.9 ± 0.28 | 3.14 ± 0.2 | 3.04 ± 0.12 | 3.14 ± 0.12 |
| YEFPIEGIEIYDRKKLP [RPC11] | 3.16 ± 0.14 | 3.01 ± 0.094 | 1.91 ± 0.14 | 3.3 ± 0.17 |
| SQLKKSKAQQKTAEQVA [RPL7A] | 2.7 ± 0.071 | 2.79 ± 0.087 | 2.58 ± 0.1 | 2.94 ± 0.052 |
| LKDFNTERVVEIGPSPT [FAS2] | 2.888 ± 0.024 | 2.901 ± 0.022 | 2.861 ± 0.017 | 2.716 ± 0.014 |
| KKEYIELDILNKGWKLQ [SRB4] | 2.29 ± 0.13 | 3.38 ± 0.17 | 2.76 ± 0.089 | 2.94 ± 0.16 |
